Measured values taken from US20130097717A1, “COMPOSITIONS AND METHODS FOR RE-PROGRAMMING CELLS WITHOUT GENETIC MODIFICATION FOR TREATMENT OF CARDIOVASCULAR DISEASES” (VIVOSCRIPT, INC., priority 2010, published 2013).

Key:
PBMC (T cells) = assay: Reprogramming of T cells to Treg cells, flow cytometry of CD4 and CD25 in PBMC; format: cell-based, human; conditions: 10, 50 or 100 μg/ml
Description: 100 ml of healthy human blood was collected from a donor and the peripheral blood mononuclear cells (PBMCs) were isolated by density-gradient centrifugation using Histopaque-1077 (Sigma-Aldrich, St Louis, Mo.). The PBMC/mono^− were cultured in […] plates (Becton Dickinson, Gaithersburg, Md.) supplemented with 10% FBS, nonessential amino acids, 2 mM glutamine, 1 mM sodium pyruvate, 25 mM HEPES, 200 units/ml penicillin, and streptomycin at 37° C. and 5% CO2. After 1 hour of culture, Foxp3 (10 μg/ml, 50 μg/ml, 100 μg/ml) were added to the cells. BSA (100 μg/ml) was added to another well as control. Same concentration of the Foxp3 or BSA was added after cultured two days. Following 5 days of culture, the cells were washed with PBS twice. The cells were re-suspended in 100 μL diluted and added rabbit anti-human CD25 for 90 minutes. The cells were washed three time with cold 1×PBS supplied 2% FBS and then the conjugated-PE mouse anti-human CD4 as well as conjugated-FITC goat anti-rabbit IgG were added to the cells for 60 minutes in ice. Conjugated-PE mouse IgG and rabbit IgG were incubated with another group cells as Isotype control. The cells were washed with PBS for flow cytometric analysis using a Beckman Coulter FC500 cytometer with Cytomics CXP software (Beckman Coulter, Fullerton, Calif.) (FIGS. 14-17).

PBMC/mono- (T cells) = assay: Reprogramming of T cells to Treg cells, flow cytometry of CD4 and CD25 in PBMC lacking CD14 monocytes; format: cell-based, human; conditions: 10, 20 or 50 μg/ml
Description: 100 ml of healthy human blood was collected from a donor and the peripheral blood mononuclear cells (PBMCs) were isolated by density-gradient centrifugation using Histopaque-1077 (Sigma-Aldrich, St Louis, Mo.). CD14+ monocytes were removed by magnetic bead selection (Miltenyi Biotec, Auburn, Calif.). Briefly, […] PBMCs were incubated with 200 μL anti-CD14 microbeads (Miltenyi Biotec) in ice for 30 minutes. The cells were washed with cold 1×PBS with 2% FCS and centrifuged at 300 g for 10 minutes and then resuspended in 1×PBS with 2% FCS. The cell suspension was applied to the magnetic column and unbinding cells were passed through by washing 3 times with 1×PBS with 2% FCS. The PBMC/mono- were harvested by centrifuged at 300 g for 10 minutes.
The PBMC/mono- were cultured in 6-well plates (Becton Dickinson, Gaithersburg, Md.) supplemented with 10% FBS, nonessential amino acids, 2 mM glutamine, 1 mM sodium pyruvate, 25 mM HEPES, 200 units/ml penicillin, and streptomycin at 37° C. and 5% CO2. After 1 hour of culture, His6-Foxp3-11R (10 μg/ml, 20 μg/ml, or 50 μg/ml) was added to the cells. BSA (100 μg/ml) was added to another well as control. Same concentration of His6-Foxp3-11R or BSA was added after cultured for two days. After 5 days of culture, the cells were washed with PBS twice. The cells were re-suspended in 100 μL diluted and added rabbit anti-human CD25 for 90 minutes. […]

[1] = added again after two days, 5 days of culture

B1: His6-Foxp3-11R: His6-tagged Foxp3 fused to 11R, SEQ ID NO: 33 (protein)
chain: MGSSHHHHHHSSGLVPRGSHMPNPRPGKPSAPSLALGPSPGASPSWRAAPKASDLLGARGPGGTFQGRDLRGGAHASSSSLNPMPPSQLQLPTLPLVMVAPSGARLGPLPHLQALLQDRPHFMHQLSTVDAHARTPVLQVHPLESPAMISLTPPTTATGVFSLKARPGLPPGINVASLEWVSREPALLCTFPNPSAPRKDSTLSAVPQSSYPLLANGVCKWPGCEKVFEEPEDFLKHCQADHLLDEKGRAQCLLQREMVQSLEQQLVLEKEKLSAMQAHLAGKMALTKASSVASSDKGSCCIVAAGSQGPVVPAWSGPREAPDSLFAVRRHLWGSHGNSTFPEFLHNMDYFKFHNMRPPFTYATLIRWAILEAPEKQRTLNEIYHWFTRMFAFFRNHPATWKNAIRHNLSLHKCFVRVESEKGAVWTVDELEFRKKRSQRPSRCSNPTPGPESGGGGSPGRRRRRRRRRRR
modifications: transducible material
PBMC (T cells)
  dose dependence of the increase of CD4+CD25+T cells: protein-dose dependent
PBMC (T cells); [1]
  CD4+CD25+T cells (Treg cells): dramatically increased
PBMC/mono- (T cells)
  dose dependence of the increase of CD4+CD25+T cells: protein-dose dependent
PBMC/mono- (T cells); [1]
  CD4+CD25+T cells (Treg cells): dramatically increased
